Biological target: the molecule itself
Assay: crystal structure

B1: N-terminal dimerization domain of S. pombe Cdc23 (Cdc23^N19-302,Y302A) (domain or fragment, UniProt O94556 19-302, looked up)
chain: QLREIRNCLLKCISECSERGLVYAVRWAAEMLNGMNPIEMEHIPFSSTPTGEFDLDPDMANEKLLEVEEKNIYLLAKSYFDCKEFERAAYTLQNCKSSKSIFLRLYSKYLAGEKKSEEENETLLNTNLTLSSTNREFYYISEVLESLHYQGNKDPYLLYLSGVVYRKRKQDSKAIDFLKSCVLKAPFFWSAWLELSLSIDSLETLTTVVSQLPSTHIMTKIFYVYASHELHQVNSSAYEKLAEAEIIFPNSRYLKTQRALLTYDSRDFDEAESLFENILTNDPA
  stoichiometry N: 2

Source: article PMC3898896 (Journal of Molecular Biology, 2013)
